Source: patent US7407934

Molecular target: amylin receptor (rat basal forebrain membranes containing the nucleus accumbens and surrounding regions) (rat)
Assay: competition with 125I-Bolton-Hunter rat amylin on rat basal forebrain membranes, filtration

29Pro-h-Amylin (peptide), sequence (peptide): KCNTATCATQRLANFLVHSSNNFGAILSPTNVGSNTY
28Pro-h-Amylin (peptide), sequence (peptide): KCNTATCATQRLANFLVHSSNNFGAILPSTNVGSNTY

Row | Substance | IC50 [nM]
1 | 1Ala-h-Amylin (peptide) | 0.148
2 | 1Ser-h-Amylin (peptide) | 0.033
3 | 28Pro-h-Amylin (peptide) | 0.015
4 | 29Pro-h-Amylin (peptide) | 0.064
5 | purified human amylin (from UniProt P10997 34-70) (peptide) | 0.05
